Measured values as given in patent US20110059888A1.
Each block holds one binder with its values, some of them ahead of it. [ ]: non-standard residue; d: D form. Arg(Me) = CNC(=N)NCCC[C@H](N)C(=O)O; Dap(CONH2) = NC(=O)NC[C@H](N)C(=O)O; Ala(cPr) = N[C@@H](CC1CC1)C(=O)O; Hyp = O=C(O)[C@@H]1C[C@@H](O)CN1; Cha = N[C@@H](CC1CCCCC1)C(=O)O; Dap = NC[C@H](N)C(=O)O

Molecular target: human OT7T175 (metastin receptor) (human) (UniProt Q969F8)
Assay: cell-based or functional assay

Sequence of UniProt Q969F8 (Q969F8 whole entry L364H): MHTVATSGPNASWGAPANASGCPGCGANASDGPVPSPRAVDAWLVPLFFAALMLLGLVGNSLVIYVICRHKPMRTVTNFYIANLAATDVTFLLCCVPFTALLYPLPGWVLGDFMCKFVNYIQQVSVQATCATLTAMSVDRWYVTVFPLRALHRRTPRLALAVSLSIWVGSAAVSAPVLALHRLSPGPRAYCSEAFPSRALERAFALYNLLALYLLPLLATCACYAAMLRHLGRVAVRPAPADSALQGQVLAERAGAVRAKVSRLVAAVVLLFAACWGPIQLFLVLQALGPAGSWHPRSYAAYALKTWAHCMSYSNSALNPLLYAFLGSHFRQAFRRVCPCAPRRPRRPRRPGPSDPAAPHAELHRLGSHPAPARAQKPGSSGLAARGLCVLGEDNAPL

Binder: Ac-[dY][Hyp][Dap(CONH2)]T[Cha]GLRW-NH2 (also: Gly7-Leu8 amide bond replaced by -CH2CH2-) [des(1)-Ac-[D-Tyr2,Hyp3,Alb4,Thr5,Cha6,Gly7Ψ(CH2CH2)Leu8,Trp10]MS10]
Specific Activity (EC50 of test compound based on EC50 of Metastin (45-54); intracellular calcium, FLIPR) (ratio to EC50 of Metastin (45-54)): 1.3

Binder: Ac-[dY][Hyp][Dap(CONH2)]T[Cha]GL[Arg(Me)]W-NH2 (also: Gly7-Leu8 amide bond replaced by -CH2CH2-) [des(1)-Ac-[D-Tyr2,Hyp3,Alb4,Thr5,Cha6,Gly7Ψ(CH2CH2)Leu8,Arg(Me)9,Trp10]MS10]
Specific Activity (EC50 of test compound based on EC50 of Metastin (45-54); intracellular calcium, FLIPR) (ratio to EC50 of Metastin (45-54)): 1.1

B1: des(1)-Ac-[D-Tyr2,Hyp3,Alb4,Thr5,Cha6,Ala(cPr)8,Arg(Me)9,Trp10]MS10 (peptide)
peptide: Ac-[dY][Hyp][Dap(CONH2)]T[Cha]G[Ala(cPr)][Arg(Me)]W-NH2
SMILES: CNC(=N)NCCC[C@H](NC(=O)[C@H](CC1CC1)NC(=O)CNC(=O)[C@H](CC1CCCCC1)NC(=O)[C@@H](NC(=O)[C@H](CNC(N)=O)NC(=O)[C@@H]1C[C@@H](O)CN1C(=O)[C@@H](Cc1ccc(O)cc1)NC(C)=O)[C@@H](C)O)C(=O)N[C@@H](Cc1c[nH]c2ccccc12)C(N)=O
Specific Activity (EC50 of test compound based on EC50 of Metastin (45-54); intracellular calcium, FLIPR) (ratio to EC50 of Metastin (45-54)): 0.5

Second part, the binder after the results:

Specific Activity (EC50 of test compound based on EC50 of Metastin (45-54); intracellular calcium, FLIPR) (ratio to EC50 of Metastin (45-54)): 1.1
Binder: Ac-[dY][Hyp]NT[Cha]GLRW-NH2 (also: Gly7Ψ(CH2CH2)Leu8: amide between Gly and Leu replaced by -CH2CH2-) [des(1)-Ac-[D-Tyr2,Hyp3,Thr5,Cha6,Gly7Ψ(CH2CH2)Leu8,Trp10]MS10]

Specific Activity (EC50 of test compound based on EC50 of Metastin (45-54); intracellular calcium, FLIPR) (ratio to EC50 of Metastin (45-54)): 1.3
Binder: Ac-[dY][Hyp]NTF[Dap]L[Arg(Me)]W-NH2 [des(1)-Ac-[D-Tyr2,Hyp3,Thr5,Dap7,Arg(Me)9,Trp10]MS10]
